The text below walks through data of patent US20210071139A1.

Emg1, sequence (O35130 whole entry): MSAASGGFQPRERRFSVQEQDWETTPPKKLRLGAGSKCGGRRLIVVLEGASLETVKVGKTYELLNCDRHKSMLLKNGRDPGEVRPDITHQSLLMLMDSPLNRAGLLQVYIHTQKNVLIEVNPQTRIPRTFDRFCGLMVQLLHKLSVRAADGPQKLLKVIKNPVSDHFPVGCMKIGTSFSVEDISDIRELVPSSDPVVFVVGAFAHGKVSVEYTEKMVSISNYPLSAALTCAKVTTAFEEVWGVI

For the first assay, the target named is TOX (UniProt Q66JW3). Briefly: anti-TOX IP from EL4 nuclear extract, LC-MS/MS, MiST analysis.
TOX, sequence (Q66JW3 whole entry): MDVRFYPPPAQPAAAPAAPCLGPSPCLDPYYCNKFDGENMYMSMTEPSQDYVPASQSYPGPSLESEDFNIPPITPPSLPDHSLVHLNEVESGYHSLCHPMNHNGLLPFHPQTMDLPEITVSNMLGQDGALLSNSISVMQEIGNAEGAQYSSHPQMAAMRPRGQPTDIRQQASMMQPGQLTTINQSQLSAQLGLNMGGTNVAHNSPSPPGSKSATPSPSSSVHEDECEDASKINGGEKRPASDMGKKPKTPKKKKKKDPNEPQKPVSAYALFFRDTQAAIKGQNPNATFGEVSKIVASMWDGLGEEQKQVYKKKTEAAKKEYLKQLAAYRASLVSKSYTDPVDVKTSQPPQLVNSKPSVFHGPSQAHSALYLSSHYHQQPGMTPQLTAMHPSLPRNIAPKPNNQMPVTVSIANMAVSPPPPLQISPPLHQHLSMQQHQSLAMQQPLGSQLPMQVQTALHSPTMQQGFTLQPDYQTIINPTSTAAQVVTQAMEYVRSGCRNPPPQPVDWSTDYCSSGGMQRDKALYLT
In turn, Thoc1 (from UniProt Q8R3N6 1-657) registered an Abundance of 9.29e-06, a MiST Score of 0.775, a Reproducibility of 0.999 and a Specificity of 0.681.

Cycs (from UniProt P62897 2-105) registered an Abundance of 8.14e-05, a MiST Score of 0.793, a Reproducibility of 0.957 and a Specificity of 0.726.

As to “Emg1 (from UniProt O35130 1-244) (enzyme)”, the Abundance turned out to be 7.66e-05, the MiST Score is 0.766, the Reproducibility is 0.939 and the Specificity amounted to 0.695.

Regarding Xrcc5 (from UniProt P27641 1-732), the Abundance is 2.92e-05, the MiST Score came out at 0.775, the Reproducibility is 0.737 and the Specificity was found to be 0.799.

The next assay deals with TOX (UniProt Q66JW3). Kind of assay: anti-TOX IP from EL4 cells, mass spectrometry, MiST analysis.
Dnaja2 (from UniProt Q9QYJ0 1-409) registered an Abundance of 0.000332, a MiST Score of 0.8, a Reproducibility of 0.946 and a Specificity of 0.742.

Substance “Rars (from UniProt Q9D0I9 1-660) (enzyme)” had an Abundance of 4.81e-06, a MiST Score of 0.797, a Reproducibility of 0.98 and a Specificity of 0.721.

“Rpl14; Rpl14-ps1 (from UniProt Q9CR57 1-217)” returned an Abundance of 0.00405, a MiST Score of 0.797, a Reproducibility of 0.997 and a Specificity of 0.714.

Consider Ckap5 (from UniProt A2AGT5 1-2032), for which the Abundance was 1.02e-06, the MiST Score stood at 0.81, the Reproducibility amounted to 0.924 and the Specificity worked out at 0.765.

Regarding Add3 (from UniProt Q9QYB5 2-706), the Abundance was 3.22e-06, the MiST Score stood at 0.807, the Reproducibility came out at 0.394 and the Specificity was found to be 1.

For the substance Rpa2 (from UniProt Q62193 1-270), the Abundance amounted to 0.000292, the MiST Score stood at 0.814, the Reproducibility was 0.977 and the Specificity amounted to 0.747.

“Nmt1 (from UniProt O70310 1-496) (enzyme)” displayed an Abundance of 6.96e-06, a MiST Score of 0.821, a Reproducibility of 0.948 and a Specificity of 0.772.

Turning to Nup98 (from UniProt Q6PFD9 1-880), the Abundance amounted to 5.87e-07, the MiST Score was 0.803, the Reproducibility came out at 0.381 and the Specificity was 1.

For Ythdf1 (from UniProt P59326 2-559), the Abundance came to 3.5e-05, the MiST Score was found to be 0.811, the Reproducibility was found to be 0.833 and the Specificity was found to be 0.809.

In turn, Ipo4 (from UniProt Q8VI75 1-1082) returned an Abundance of 1.65e-06, a MiST Score of 0.826, a Reproducibility of 0.94 and a Specificity of 0.782.

As to Lmnb1 (from UniProt P14733 2-585), the Abundance is 1.67e-05, the MiST Score amounted to 0.822, the Reproducibility amounted to 0.964 and the Specificity was 0.766.

The substance Ahnak yielded an Abundance of 6.22e-06, a MiST Score of 0.812, a Reproducibility of 0.497 and a Specificity of 0.961.

Turning to Lrrfip1 (from UniProt Q3UZ39 2-729), the Abundance worked out at 8.42e-06, the MiST Score worked out at 0.817, the Reproducibility was found to be 0.996 and the Specificity was 0.743.

In turn, Ep400 (from UniProt Q8CHI8 1-3072) yielded an Abundance of 2.31e-06, a MiST Score of 0.825, a Reproducibility of 0.451 and a Specificity of 1.

“Otud4 (from UniProt B2RRE7 1-1107) (enzyme)” gave an Abundance of 9.24e-07, a MiST Score of 0.818, a Reproducibility of 0.993 and a Specificity of 0.747.

Tbl1x (from UniProt Q9QXE7 2-527) showed an Abundance of 5.34e-06, a MiST Score of 0.825, a Reproducibility of 0.453 and a Specificity of 1.

The substance Srsf5 (from UniProt O35326 1-269) gave an Abundance of 0.000505, a MiST Score of 0.807, a Reproducibility of 0.996 and a Specificity of 0.729.

In turn, Isy1 (from UniProt Q69ZQ2 1-285) returned an Abundance of 3.22e-05, a MiST Score of 0.811, a Reproducibility of 0.856 and a Specificity of 0.797.

The substance Wrnip1 (from UniProt Q91XU0 1-660) yielded an Abundance of 3.59e-06, a MiST Score of 0.812, a Reproducibility of 0.41 and a Specificity of 1.

The substance Dst (from UniProt Q91ZU6 1-7393) gave an Abundance of 1.97e-08, a MiST Score of 0.804, a Reproducibility of 0.385 and a Specificity of 1.

In the case of Zc3h11a (from UniProt Q6NZF1 1-792), the Abundance was found to be 1.22e-05, the MiST Score turned out to be 0.801, the Reproducibility amounted to 0.957 and the Specificity came out at 0.737.

On to Sfxn1 (from UniProt Q99JR1 2-322), for which the Abundance worked out at 3.71e-05, the MiST Score was 0.827, the Reproducibility was 0.954 and the Specificity worked out at 0.777.

Stau1 (from UniProt Q9Z108 1-487) yielded an Abundance of 1.96e-05, a MiST Score of 0.825, a Reproducibility of 0.951 and a Specificity of 0.776.

Regarding “Cpsf3 (from UniProt Q9QXK7 2-684) (enzyme)”, the Abundance was determined as 1.17e-05, the MiST Score came out at 0.825, the Reproducibility was determined as 0.871 and the Specificity turned out to be 0.811.

“Yars (from UniProt Q91WQ3 1-528) (enzyme)”: the Abundance is 2.51e-06, the MiST Score is 0.802, the Reproducibility worked out at 0.379 and the Specificity came to 1.

As for “Aars (from UniProt Q8BGQ7 1-968) (enzyme)”, the Abundance was found to be 4.49e-06, the MiST Score is 0.827, the Reproducibility came to 0.459 and the Specificity was found to be 1.

As to Ssb (from UniProt P32067 1-415), the Abundance is 3.74e-05, the MiST Score stood at 0.809, the Reproducibility came to 0.807 and the Specificity stood at 0.817.

Ap3d1 (from UniProt O54774 2-1199) displayed an Abundance of 1.02e-06, a MiST Score of 0.817, a Reproducibility of 0.427 and a Specificity of 1.

Substance LRWD1 (from UniProt Q8BUI3 1-648) yielded an Abundance of 9.87e-06, a MiST Score of 0.803, a Reproducibility of 0.965 and a Specificity of 0.737.

Baz1a (from UniProt O88379 1-1555) yielded an Abundance of 4.09e-07, a MiST Score of 0.825, a Reproducibility of 0.454 and a Specificity of 1.

In turn, Tra2b (from UniProt P62996 2-288) registered an Abundance of 3.65e-05, a MiST Score of 0.803, a Reproducibility of 0.381 and a Specificity of 1.

The substance “Supt16; Supt16h (from UniProt Q920B9 2-1047)” came in with an Abundance of 4.95e-06, a MiST Score of 0.818, a Reproducibility of 0.8 and a Specificity of 0.833.

Tpx2 (from UniProt A2APB8 1-745): the Abundance was 1.91e-05, the MiST Score was determined as 0.805, the Reproducibility stood at 0.992 and the Specificity turned out to be 0.727.

Substance Rps23 (from UniProt P62267 1-143) showed an Abundance of 0.00479, a MiST Score of 0.807, a Reproducibility of 0.997 and a Specificity of 0.728.

In the case of Rftn1 (from UniProt Q6A0D4 2-554), the Abundance was 4.96e-06, the MiST Score is 0.8, the Reproducibility stood at 0.37 and the Specificity was determined as 1.

“Dnmt1 (from UniProt P13864 1-1620) (enzyme)”: the Abundance came to 4.05e-06, the MiST Score is 0.814, the Reproducibility was 0.929 and the Specificity was found to be 0.77.

Tfip11 (from UniProt Q9ERA6 1-838) registered an Abundance of 5.43e-06, a MiST Score of 0.826, a Reproducibility of 0.972 and a Specificity of 0.767.

In turn, Tdrd3 (from UniProt Q91W18 1-743) yielded an Abundance of 8.62e-06, a MiST Score of 0.815, a Reproducibility of 0.627 and a Specificity of 0.907.

The substance “Parp2 (from UniProt O88554 1-559) (enzyme)” gave an Abundance of 2.87e-06, a MiST Score of 0.827, a Reproducibility of 0.46 and a Specificity of 1.

Substance Pds5b (from UniProt Q4VA53 1-1446) showed an Abundance of 2.47e-06, a MiST Score of 0.807, a Reproducibility of 0.845 and a Specificity of 0.797.

Substance “Ptpn11 (from UniProt P35235 2-593) (enzyme)” came in with an Abundance of 4.22e-05, a MiST Score of 0.808, a Reproducibility of 0.396 and a Specificity of 1.

The substance “Ddx18 (from UniProt Q8K363 1-660) (enzyme)” had an Abundance of 4.72e-05, a MiST Score of 0.822, a Reproducibility of 0.986 and a Specificity of 0.756.

On to Pds5a (from UniProt Q6A026 1-1332), for which the Abundance came to 1.76e-06, the MiST Score was 0.824, the Reproducibility came out at 0.865 and the Specificity is 0.813.
